Test results taken from US20190002888A1 (INSTITUT NATIONAL DE LA SANTE ET DE LA RECHERCHE MEDICALE …, published 2019).

Tests used:
[1] = molecular target: FLT3 receptor in adult mouse DRG sensory neurons (mouse) (UniProt Q00342); test: cell-based or functional assay
[2] = molecular target: T1, SNAP tagged mouse FLT3, full-length, expressed in HEK293T cells (mouse, UniProt Q00342 28-1000, SNAP tag covalently labelled with SNAP-Lumi4-Tb); test: TR-FRET displacement of 0.5 nM Red-FL on HEK293T cells expressing SNAP tagged full-length mFLT3
T1 construct: whole, on cells; Transiently transfected HEK293T cells; also called full-length mFLT3; mFLT3; not shown: SNAP tag (plasmid from Cisbio Bioassays)
T1 sequence (looked up): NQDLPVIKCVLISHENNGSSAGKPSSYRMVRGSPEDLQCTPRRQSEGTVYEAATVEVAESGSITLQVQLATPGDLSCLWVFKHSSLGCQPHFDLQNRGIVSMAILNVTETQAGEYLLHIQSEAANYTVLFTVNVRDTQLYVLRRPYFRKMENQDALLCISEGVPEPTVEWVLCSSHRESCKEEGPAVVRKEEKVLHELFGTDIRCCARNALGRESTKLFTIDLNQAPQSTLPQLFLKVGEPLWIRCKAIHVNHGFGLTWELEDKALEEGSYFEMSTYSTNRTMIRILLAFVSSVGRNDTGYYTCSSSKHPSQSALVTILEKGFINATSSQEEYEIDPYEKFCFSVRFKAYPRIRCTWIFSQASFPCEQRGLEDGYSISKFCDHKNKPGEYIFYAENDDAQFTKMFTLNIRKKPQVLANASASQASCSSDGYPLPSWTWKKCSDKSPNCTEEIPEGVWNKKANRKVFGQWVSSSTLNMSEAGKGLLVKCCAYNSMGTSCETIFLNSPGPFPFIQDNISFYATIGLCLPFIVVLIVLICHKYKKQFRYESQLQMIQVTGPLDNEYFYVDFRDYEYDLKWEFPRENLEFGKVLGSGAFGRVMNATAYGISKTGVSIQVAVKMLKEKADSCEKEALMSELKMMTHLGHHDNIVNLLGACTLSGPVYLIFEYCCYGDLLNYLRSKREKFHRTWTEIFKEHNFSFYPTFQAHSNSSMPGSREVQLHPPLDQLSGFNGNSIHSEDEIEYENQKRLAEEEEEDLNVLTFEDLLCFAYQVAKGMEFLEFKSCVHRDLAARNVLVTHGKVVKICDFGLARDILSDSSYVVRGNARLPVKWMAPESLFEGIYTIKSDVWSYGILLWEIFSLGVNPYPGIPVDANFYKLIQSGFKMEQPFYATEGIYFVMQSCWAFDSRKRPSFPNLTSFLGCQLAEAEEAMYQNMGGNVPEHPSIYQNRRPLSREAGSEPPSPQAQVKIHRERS
Procedure: (§1) TR-FRET binding assays. TR-FRET binding assays were performed 24 h after transfection on fresh cells. When using frozen cells, binding assays were carried out immediately after cells thawing. When the assay was carried out on adherent cells in 96-well plates, the cell density was 50,000 cells per well, while a density of 10,000 cells per well was used to carry out binding assays in suspension in 384-well small volume plates.
(§2) Cells were incubated with 0.5 nM Red-FL in the presence of increasing concentrations of the antibody. In the plates containing labelled cells, 50 μl of Tag-lite® labelling medium, 25 μl of compounds to be tested were added and incubated for 1 h at room temperature prior to the addition of 25 μl of Red-FL. Plates were then incubated at room temperature for 4 h or overnight before signal detection.
(§3) Signal detection. Signal was detected using an advanced fluorescence microplate reader (RUBYstar, BMG Labtech) equipped with a HTRF optic module allowing a donor excitation at 337 nm and a signal collection both at 665 nm and 620 nm. A frequency of 20 flashes/well is selected for the laser excitation. […] Results were expressed as percentage of signal measured in the presence of Red-FL alone, corrected for non-specific binding measured in the presence of […].

[3] = molecular target: T2, SNAP tagged human FLT3, full-length, expressed in HEK293T cells (human, UniProt P36888 27-993, SNAP tag covalently labelled with SNAP-Lumi4-Tb); test: TR-FRET displacement of 0.5 nM Red-FL on HEK293T cells expressing SNAP tagged full-length hFLT3
T2 construct: whole, on cells; Transiently transfected HEK293T cells; also called full-length hFLT3; hFLT3; not shown: SNAP tag (plasmid from Cisbio Bioassays)
T2 sequence (looked up): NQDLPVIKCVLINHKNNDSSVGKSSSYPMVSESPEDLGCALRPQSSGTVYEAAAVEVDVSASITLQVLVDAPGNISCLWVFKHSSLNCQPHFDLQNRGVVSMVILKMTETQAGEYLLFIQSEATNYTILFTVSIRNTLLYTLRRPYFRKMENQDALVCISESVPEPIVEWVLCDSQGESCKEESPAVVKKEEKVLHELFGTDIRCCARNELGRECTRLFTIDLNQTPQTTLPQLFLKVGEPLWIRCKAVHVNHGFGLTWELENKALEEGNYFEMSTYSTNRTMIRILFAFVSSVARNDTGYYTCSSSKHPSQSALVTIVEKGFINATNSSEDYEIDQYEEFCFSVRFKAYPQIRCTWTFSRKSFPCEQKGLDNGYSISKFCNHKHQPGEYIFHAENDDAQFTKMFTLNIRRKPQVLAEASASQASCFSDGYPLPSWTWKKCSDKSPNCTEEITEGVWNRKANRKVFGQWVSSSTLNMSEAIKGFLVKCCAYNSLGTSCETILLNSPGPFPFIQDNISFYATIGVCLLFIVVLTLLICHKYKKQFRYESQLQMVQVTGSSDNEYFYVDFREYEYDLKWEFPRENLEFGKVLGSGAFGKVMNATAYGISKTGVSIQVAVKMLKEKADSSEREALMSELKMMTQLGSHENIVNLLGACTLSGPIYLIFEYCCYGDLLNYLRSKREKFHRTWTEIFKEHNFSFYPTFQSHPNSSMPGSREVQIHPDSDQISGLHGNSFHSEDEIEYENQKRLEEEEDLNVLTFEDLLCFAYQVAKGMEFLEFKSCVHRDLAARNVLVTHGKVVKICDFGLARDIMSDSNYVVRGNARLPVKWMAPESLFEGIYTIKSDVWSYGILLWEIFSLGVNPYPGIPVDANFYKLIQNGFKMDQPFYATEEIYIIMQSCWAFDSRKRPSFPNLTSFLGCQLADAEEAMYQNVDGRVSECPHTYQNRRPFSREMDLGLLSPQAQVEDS
Procedure: as §1, §2, §3

FL (FLT3-Ligand, from ABCYS SA)
mean fold increase in TRPV1 response, ΔFarea [1]: 512%
mean fold increase in TRPV1 response, ΔFpeak [1]: 212%
potentiation of the capsaicin response ([Ca2+]i, Fura-2) in DRG neurons: share of capsaicin-responding cells potentiated [1]: 56%

B1: A3 antibody (human monoclonal antibody against FLT3) (antibody, V domains shown)
VH: EVQLVESGGSLVKPGGSLRLSCAASGFTFSNSYMNWVRQAPGKGLEWISDISGSSRDIDYADFVKGRFTISRDNATNSLYLQMNSLRAEDTAVYYCVRSGNSGMDVWGRGTLVTVSS
VL: QSVLTQPASVSGSPGQSITISCAGTSSDVGGGYYVSWYQQHPGKAPKLMIYYDSYRPSGVSNRFSGSKSGNTASLTISGLQAEDEADYYCSSYTNNSTRVFGGGTKLEIK
notes: also called antibody A3; anti-FLT3 A3 antibody
IC50 [2]: ~17 µg/mL
IC50 [3]: ~17 µg/mL
